{
  "source": "patent US20230125550A1",
  "about": "(ARCELLX, published 2023)",
  "binders": {"B1": {"name": "SEQ ID NO: 318 (designed binder)", "chain": "MGSWVEFWFRLEAIDSRLWALGGSEAELAAFEKEIAAFESELQAYKGKGNPEVEWLREEAAAIREDLQAYRHN", "notes": "D domain, on phage"}, "B2": {"name": "SEQ ID NO: 322 (designed binder)", "chain": "B1 chain with V5Y, W8E, F9T, D15Y, S16D, W55L, E58V, A62E", "notes": "D domain, on phage"}, "B3": {"name": "SEQ ID NO: 329 (designed binder)", "chain": "B1 chain with W8H, F9D, D15E, S16D, W19Y, E59D, A62Y, E65S, D66I", "notes": "D domain, on phage"}, "B4": {"name": "SEQ ID NO: 317 (designed binder)", "chain": "B1 chain with V5A, W8E, F9D, E12W, D15E, S16D, W55Y, E65F, D66E", "notes": "D domain, on phage"}, "B5": {"name": "SEQ ID NO: 328 (designed binder)", "chain": "MGSWVEFHERLEAIEDRLMALGGSEAELAAFEKEIAAFESELQAYKGKGNPEVEYLREDAAFIRQLLQAYRHN", "notes": "D domain, on phage"}, "B6": {"name": "SEQ ID NO: 332 (designed binder)", "chain": "B5 chain with E9D, M19L, Y55D, D59Y, F62G, Q65W, L66F", "notes": "D domain, on phage"}, "B7": {"name": "SEQ ID NO: 369 (designed binder)", "chain": "MGSWFEFDDRLWAIENRLWALGGSEAELAAFEKEIAAFESELQAYKGKGNPEVEVLRDNAAWIREILQAYRHN", "notes": "D domain, on phage"}, "B8": {"name": "SEQ ID NO: 367 (designed binder)", "chain": "B1 chain with W8Y, F9S, E12D, D15E, S16D, E58I, E59A, A62S", "notes": "D domain, on phage"}, "B9": {"name": "SEQ ID NO: 372 (designed binder)", "chain": "B7 chain with F5D, D8V, N16E, V55E, D58I, N59Q, W62I, I66A", "notes": "D domain, on phage"}, "B10": {"name": "SEQ ID NO: 380 (designed binder)", "chain": "B7 chain with D8E, W12E, E15Y, N16Q, W19D, V55W, N59E, E65S, I66D", "notes": "D domain, on phage"}, "B11": {"name": "SEQ ID NO: 320 (designed binder)", "chain": "B1 chain with V5S, F9Q, D15E, S16D, E59N, A62M, E65D, D66E", "notes": "D domain, on phage"}, "B12": {"name": "SEQ ID NO: 381 (designed binder)", "chain": "B1 chain with V5F, W8H, F9D, E12W, S16E, W55I, A62D, E65L", "notes": "D domain, on phage"}, "B13": {"name": "SEQ ID NO: 330 (designed binder)", "chain": "B5 chain with V5I, H8Y, E9D, E15Y, M19D, Y55W, Q65S, L66W", "notes": "D domain, on phage"}, "B14": {"name": "SEQ ID NO: 370 (designed binder)", "chain": "B7 chain with F5Y, D8W, W12D, I14L, N16D, V55Y, N59S, W62F, I66E", "notes": "D domain, on phage"}, "B15": {"name": "SEQ ID NO: 363 (designed binder)", "chain": "B1 chain with W8D, F9M, E12S, D15W, S16E, W19I, E59D, A62E, D66F", "notes": "D domain, on phage"}, "B16": {"name": "SEQ ID NO: 321 (designed binder)", "chain": "B1 chain with V5S, W8I, F9T, S16D, W55I, A62E, E65Q, D66H", "notes": "D domain, on phage"}, "B17": {"name": "SEQ ID NO: 319 (designed binder)", "chain": "B1 chain with F9Q, D15E, W55F, A62E, E65W, D66E", "notes": "D domain, on phage"}, "B18": {"name": "SEQ ID NO: 371 (designed binder)", "chain": "B1 chain with V5M, W8V, F9D, E12D, D15E, E58I, A62F, D66E", "notes": "D domain, on phage"}, "B19": {"name": "SEQ ID NO: 382 (designed binder)", "chain": "B7 chain with F5Y, D8E, E15D, V55E, D58V, N59H, W62D, E65D, I66D", "notes": "D domain, on phage"}, "B20": {"name": "SEQ ID NO: 316 (designed binder)", "chain": "B5 chain with V5T, E9D, E15D, M19W, D59E, F62Q, Q65W, L66E", "notes": "D domain, on phage"}, "B21": {"name": "SEQ ID NO: 331 (designed binder)", "chain": "B5 chain with H8D, E9Q, E15Y, M19Y, Y55W, F62Q, Q65K, L66W", "notes": "D domain, on phage"}, "B22": {"name": "SEQ ID NO: 368 (designed binder)", "chain": "B7 chain with F5Y, D8Y, D9E, W12D, N16E, N59W, I66D", "notes": "D domain, on phage"}, "B23": {"name": "SEQ ID NO: 364 (designed binder)", "chain": "B1 chain with W8D, F9Q, E12D, D15Y, S16E, W19Y, E58D, A62E, D66H", "notes": "D domain, on phage"}, "B24": {"name": "SEQ ID NO: 379 (designed binder)", "chain": "B1 chain with V5F, F9D, D15W, S16E, W19D, W55E, E58R, A62I", "notes": "D domain, on phage"}},
  "note": "Changes are numbered by the printed parent chain.",
  "data": [
    {"molecular_target": "T1, recombinant human CD123-Fc (human, UniProt P26951 19-305)", "T1 construct": "not shown: Fc part of CD123-Fc", "T1 sequence": "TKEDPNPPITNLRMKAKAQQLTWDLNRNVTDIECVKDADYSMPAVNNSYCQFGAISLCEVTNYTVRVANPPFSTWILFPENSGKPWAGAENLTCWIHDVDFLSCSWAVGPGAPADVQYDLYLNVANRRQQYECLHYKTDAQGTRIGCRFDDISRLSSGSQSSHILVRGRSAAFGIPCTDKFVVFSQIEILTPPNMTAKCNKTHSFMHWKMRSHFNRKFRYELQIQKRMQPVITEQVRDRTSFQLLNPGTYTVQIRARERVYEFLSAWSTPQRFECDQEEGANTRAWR", "assay": "phage ELISA, captured CD123-Fc", "method": "Individual colonies containing phagemid from BCMA panning output were picked and phage were rescued in 96-well format using VCSM13 helper phage following standard protocols. To assay target binding by ELISA, 96-well plates were coated with 1.3 microg/ml goat anti-human IgG1-Fc antibody followed by incubation with 5 nM of recombinant human target (BCMA-Fc, CD123-Fc, AFP, or AFP123) or IgG1-Fc. 50 microl of rescued phage diluted 5× in ELISA blocking buffer was then added to each well. Binding was detected using an HRP-conjugated anti-M13 antibody and the ELISA ratio for each sequence is reported as the absorbance at 450 nm for target (i.e., BCMA-Fc, CD123-Fc, AFP, or AFP123) divided by that for IgG1-Fc averaged across all screened wells containing that clone.", "units": {"ELISA_avg": "ratio A450 target/IgG1-Fc"}, "values": [
      {"binder": "B1", "ELISA_avg": 3.2},
      {"binder": "B2", "ELISA_avg": 3.2},
      {"binder": "B3", "ELISA_avg": 4.6},
      {"binder": "B4", "ELISA_avg": 6.2},
      {"binder": "B5", "ELISA_avg": 3.7},
      {"binder": "B6", "ELISA_avg": 3.3},
      {"binder": "B7", "ELISA_avg": 4.2},
      {"binder": "B8", "ELISA_avg": 9.4},
      {"binder": "B9", "ELISA_avg": 6},
      {"binder": "B10", "ELISA_avg": 5.5},
      {"binder": "B11", "ELISA_avg": 4.7},
      {"binder": "B12", "ELISA_avg": 3.5},
      {"binder": "B13", "ELISA_avg": 7.5},
      {"binder": "B14", "ELISA_avg": 9.7},
      {"binder": "B15", "ELISA_avg": 3.3},
      {"binder": "B16", "ELISA_avg": 3.3},
      {"binder": "B17", "ELISA_avg": 7.7},
      {"binder": "B18", "ELISA_avg": 5.8},
      {"binder": "B19", "ELISA_avg": 4.9},
      {"binder": "B20", "ELISA_avg": 5.8},
      {"binder": "B21", "ELISA_avg": 5.1},
      {"binder": "B22", "ELISA_avg": 8.4},
      {"binder": "B23", "ELISA_avg": 10.5},
      {"binder": "B24", "ELISA_avg": 10.3}
    ]}
  ]
}
